How the values were obtained:
[1] = biological target: G3BP1 (UniProt Q13283)
[2] = biological target: G3BP1 (UniProt Q13283); remark: listed apart in the source

Sequence of UniProt Q13283 (Q13283 whole entry, looked up): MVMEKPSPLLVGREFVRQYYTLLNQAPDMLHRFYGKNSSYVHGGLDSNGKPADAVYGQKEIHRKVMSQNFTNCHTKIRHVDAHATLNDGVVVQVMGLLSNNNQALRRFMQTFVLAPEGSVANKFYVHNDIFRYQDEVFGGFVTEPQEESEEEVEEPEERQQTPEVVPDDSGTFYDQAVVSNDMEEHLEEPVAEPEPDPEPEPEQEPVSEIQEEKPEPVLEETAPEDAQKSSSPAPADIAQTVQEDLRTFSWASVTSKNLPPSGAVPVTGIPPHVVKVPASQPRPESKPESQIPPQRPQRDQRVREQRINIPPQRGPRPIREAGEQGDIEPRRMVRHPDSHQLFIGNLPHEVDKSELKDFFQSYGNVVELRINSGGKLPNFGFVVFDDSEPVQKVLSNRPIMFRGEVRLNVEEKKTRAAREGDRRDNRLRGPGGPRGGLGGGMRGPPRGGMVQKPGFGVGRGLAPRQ

Substance | effect of a mutation on the interaction [1] | effect of a mutation on the interaction [2]
Nucleoprotein (SARS-CoV-2) (from UniProt P0DTC9) G18A | decreasing interaction strength | –
Nucleoprotein (SARS-CoV-2) (from UniProt P0DTC9) G18E | – | decreasing interaction strength
Nucleoprotein (SARS-CoV-2) (from UniProt P0DTC9) I15A | – | decreasing interaction strength
Nucleoprotein (SARS-CoV-2) (from UniProt P0DTC9) I15A;T16A;F17A;G18A | disrupting interaction strength | –
Nucleoprotein (SARS-CoV-2) (from UniProt P0DTC9) T16A | – | decreasing interaction strength
